Experiments:
[1] = target: myogenesis-regulating glycosidase (MYORG) residues 80-714, glycosylated (human); assay: SEC-MALS; SEC-MALLS; Superdex S200 10/300 GL in 20 mM HEPES (pH 7.5), 200 mM NaCl; ambient temperature; 100 ul of 3 mg/ml MYORG injected; 0.5 ml/min
[2] = target: T1, MYORG (myogenesis-regulating glycosidase) (Homo sapiens, UniProt Q6NSJ0); assay: ITC; crystal structure ([…] Å soak); thermal shift (ΔTm […] °C); inhibition of 4MU-Gal hydrolysis; format: binding; set-up: residues 80–714 (MYORGGH31)
T1 sequence (Q6NSJ0 80-714): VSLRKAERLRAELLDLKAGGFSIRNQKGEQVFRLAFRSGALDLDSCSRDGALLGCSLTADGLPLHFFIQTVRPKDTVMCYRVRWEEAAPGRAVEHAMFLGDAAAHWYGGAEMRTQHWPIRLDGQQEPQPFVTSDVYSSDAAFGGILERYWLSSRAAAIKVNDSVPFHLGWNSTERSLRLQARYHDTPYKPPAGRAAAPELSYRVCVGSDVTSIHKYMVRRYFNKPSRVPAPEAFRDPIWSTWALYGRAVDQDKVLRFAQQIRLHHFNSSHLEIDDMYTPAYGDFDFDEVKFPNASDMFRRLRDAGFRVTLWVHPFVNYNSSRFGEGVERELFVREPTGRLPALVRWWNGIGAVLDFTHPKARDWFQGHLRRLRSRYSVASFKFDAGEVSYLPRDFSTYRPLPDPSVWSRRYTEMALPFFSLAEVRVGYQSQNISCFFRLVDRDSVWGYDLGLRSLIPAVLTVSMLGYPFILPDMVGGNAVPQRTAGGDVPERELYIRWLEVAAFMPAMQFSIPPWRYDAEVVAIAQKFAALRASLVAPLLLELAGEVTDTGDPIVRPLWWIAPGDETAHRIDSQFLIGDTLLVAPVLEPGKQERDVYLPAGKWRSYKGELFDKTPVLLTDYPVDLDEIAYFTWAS

[3] = target: T1, MYORG (myogenesis-regulating glycosidase)
[4] = target: myogenesis-regulating glycosidase (MYORG) residues 80-714, deglycosylated with EndoH (human); assay: SEC-MALS; SEC-MALLS; Superdex S200 10/300 GL in 20 mM HEPES (pH 7.5), 200 mM NaCl; ambient temperature; 100 ul of 3 mg/ml MYORG injected; 0.5 ml/min
[5] = substrate: OC[C@H]1O[C@H](O[C@H]2[C@H](O)[C@@H](O)C(O)O[C@@H]2CO)[C@H](O)[C@@H](O)[C@H]1O; assay: Michaelis–Menten kinetics with purified enzyme (glucose oxidase/HRP paired-enzyme assay); KM; format: biochemical, Homo sapiens; details: active site, −[…] and +[…] subsites

myogenesis-regulating glycosidase (MYORG) residues 80-714, glycosylated (domain or fragment)
stoichiometry N [1]: 2

OC[C@H]1NC[C@H](O)[C@@H](O)[C@H]1O [DGJ, deoxygalactonojirimycin]
Kd [2]: 1.33 ± 0.45 µM

Cc1cc(=O)oc2cc(O[C@H]3O[C@H](CO)[C@H](O)[C@H](O)[C@H]3O)ccc12 [4MU-Gal]
fluorogenic hydrolysis by purified enzyme; kcat/KM [3]: 7.247 ± 0.0637 M⁻¹ s⁻¹

myogenesis-regulating glycosidase (MYORG) residues 80-714, deglycosylated with EndoH (domain or fragment)
stoichiometry N [4]: 2

B1: MYORG (myogenesis-regulating glycosidase) (Homo sapiens) (protein)
chain: VSLRKAERLRAELLDLKAGGFSIRNQKGEQVFRLAFRSGALDLDSCSRDGALLGCSLTADGLPLHFFIQTVRPKDTVMCYRVRWEEAAPGRAVEHAMFLGDAAAHWYGGAEMRTQHWPIRLDGQQEPQPFVTSDVYSSDAAFGGILERYWLSSRAAAIKVNDSVPFHLGWNSTERSLRLQARYHDTPYKPPAGRAAAPELSYRVCVGSDVTSIHKYMVRRYFNKPSRVPAPEAFRDPIWSTWALYGRAVDQDKVLRFAQQIRLHHFNSSHLEIDDMYTPAYGDFDFDEVKFPNASDMFRRLRDAGFRVTLWVHPFVNYNSSRFGEGVERELFVREPTGRLPALVRWWNGIGAVLDFTHPKARDWFQGHLRRLRSRYSVASFKFDAGEVSYLPRDFSTYRPLPDPSVWSRRYTEMALPFFSLAEVRVGYQSQNISCFFRLVDRDSVWGYDLGLRSLIPAVLTVSMLGYPFILPDMVGGNAVPQRTAGGDVPERELYIRWLEVAAFMPAMQFSIPPWRYDAEVVAIAQKFAALRASLVAPLLLELAGEVTDTGDPIVRPLWWIAPGDETAHRIDSQFLIGDTLLVAPVLEPGKQERDVYLPAGKWRSYKGELFDKTPVLLTDYPVDLDEIAYFTWAS
notes: residues 80–714 (MYORGGH31)
Km [5]: 980 ± 7 µM

Source: publication PMC9491548, “The primary familial brain calcification-associated protein MYORG is an α-galactosidase with restricted substrate specificity” (PLoS Biology, 2022)
